# Assay results reported in patent US20210388087A1 (Chugai, published 2021).
# Target: T1, CD3 epsilon homodimer protein (UniProt P07766 23-126)
# T1 construct: also called CD3 (CD3 epsilon)
# Assay: SPR, antibody over immobilised CD3e homodimer;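 also: SPR at 25 °C with CD3 epsilon homodimer amine-coupled to a CM4 sensor chip and antibody flowed over as analyte in HBS-EP+ running buffer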
# T1 sequence (P07766 23-126): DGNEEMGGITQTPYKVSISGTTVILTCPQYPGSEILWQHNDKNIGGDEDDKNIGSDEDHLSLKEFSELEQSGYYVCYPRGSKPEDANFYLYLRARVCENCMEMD
row,Binder,KD ratio to GLS3000
1,"CE115HA000/GLS3000 H34N (antibody, IgG1, name in Kabat numbering, V domains shown, one-arm IgG1) VH: QVQLVESGGGVVQPGRSLRLSCAASGFTFSNAWMHWVRQAPGKGLEWVAQIKAKSNNYATYYAESVKGRFTISRDDSKNSLYLQMNSLKTEDTAVYYCRYVHYGAYYGVDAWGQGTTVTVSS VL: DIVMTQSPLSLPVTPGEPASISCRSSQSLVHSNRNTYLNWYQQKPGQAPRLLIYKVSNRFSGVPDRFSGSGSGTDFTLKISRVEAEDVGVYYCGQGTQVPYTFGQGTKLEIK",2.84
2,"CE115HA000/GLS3000 H34P (antibody, IgG1, name in Kabat numbering, V domains shown, one-arm IgG1) VH: QVQLVESGGGVVQPGRSLRLSCAASGFTFSNAWMHWVRQAPGKGLEWVAQIKAKSNNYATYYAESVKGRFTISRDDSKNSLYLQMNSLKTEDTAVYYCRYVHYGAYYGVDAWGQGTTVTVSS VL: DIVMTQSPLSLPVTPGEPASISCRSSQSLVHSNRNTYLPWYQQKPGQAPRLLIYKVSNRFSGVPDRFSGSGSGTDFTLKISRVEAEDVGVYYCGQGTQVPYTFGQGTKLEIK",1.22
3,"CE115HA000/GLS3000 H34Q (antibody, IgG1, name in Kabat numbering, V domains shown, one-arm IgG1) VH: QVQLVESGGGVVQPGRSLRLSCAASGFTFSNAWMHWVRQAPGKGLEWVAQIKAKSNNYATYYAESVKGRFTISRDDSKNSLYLQMNSLKTEDTAVYYCRYVHYGAYYGVDAWGQGTTVTVSS VL: DIVMTQSPLSLPVTPGEPASISCRSSQSLVHSNRNTYLQWYQQKPGQAPRLLIYKVSNRFSGVPDRFSGSGSGTDFTLKISRVEAEDVGVYYCGQGTQVPYTFGQGTKLEIK",4.6
4,"CE115HA000/GLS3000 H34Y (antibody, IgG1, name in Kabat numbering, V domains shown, one-arm IgG1) VH: QVQLVESGGGVVQPGRSLRLSCAASGFTFSNAWMHWVRQAPGKGLEWVAQIKAKSNNYATYYAESVKGRFTISRDDSKNSLYLQMNSLKTEDTAVYYCRYVHYGAYYGVDAWGQGTTVTVSS VL: DIVMTQSPLSLPVTPGEPASISCRSSQSLVHSNRNTYLYWYQQKPGQAPRLLIYKVSNRFSGVPDRFSGSGSGTDFTLKISRVEAEDVGVYYCGQGTQVPYTFGQGTKLEIK",2.44
5,"CE115HA000/GLS3000 H34W (antibody, IgG1, name in Kabat numbering, V domains shown, one-arm IgG1) VH: QVQLVESGGGVVQPGRSLRLSCAASGFTFSNAWMHWVRQAPGKGLEWVAQIKAKSNNYATYYAESVKGRFTISRDDSKNSLYLQMNSLKTEDTAVYYCRYVHYGAYYGVDAWGQGTTVTVSS VL: DIVMTQSPLSLPVTPGEPASISCRSSQSLVHSNRNTYLWWYQQKPGQAPRLLIYKVSNRFSGVPDRFSGSGSGTDFTLKISRVEAEDVGVYYCGQGTQVPYTFGQGTKLEIK",8.45
6,"CE115HA000/GLS3000 K50D (antibody, IgG1, name in Kabat numbering, V domains shown, one-arm IgG1) VH: QVQLVESGGGVVQPGRSLRLSCAASGFTFSNAWMHWVRQAPGKGLEWVAQIKAKSNNYATYYAESVKGRFTISRDDSKNSLYLQMNSLKTEDTAVYYCRYVHYGAYYGVDAWGQGTTVTVSS VL: DIVMTQSPLSLPVTPGEPASISCRSSQSLVHSNRNTYLHWYQQKPGQAPRLLIYDVSNRFSGVPDRFSGSGSGTDFTLKISRVEAEDVGVYYCGQGTQVPYTFGQGTKLEIK",114
7,"CE115HA000/GLS3000 H34S (antibody, IgG1, name in Kabat numbering, V domains shown, one-arm IgG1) VH: QVQLVESGGGVVQPGRSLRLSCAASGFTFSNAWMHWVRQAPGKGLEWVAQIKAKSNNYATYYAESVKGRFTISRDDSKNSLYLQMNSLKTEDTAVYYCRYVHYGAYYGVDAWGQGTTVTVSS VL: DIVMTQSPLSLPVTPGEPASISCRSSQSLVHSNRNTYLSWYQQKPGQAPRLLIYKVSNRFSGVPDRFSGSGSGTDFTLKISRVEAEDVGVYYCGQGTQVPYTFGQGTKLEIK",1.24
8,"CE115HA000/GLS3000 K50A (antibody, IgG1, name in Kabat numbering, V domains shown, one-arm IgG1) VH: QVQLVESGGGVVQPGRSLRLSCAASGFTFSNAWMHWVRQAPGKGLEWVAQIKAKSNNYATYYAESVKGRFTISRDDSKNSLYLQMNSLKTEDTAVYYCRYVHYGAYYGVDAWGQGTTVTVSS VL: DIVMTQSPLSLPVTPGEPASISCRSSQSLVHSNRNTYLHWYQQKPGQAPRLLIYAVSNRFSGVPDRFSGSGSGTDFTLKISRVEAEDVGVYYCGQGTQVPYTFGQGTKLEIK",59.5
9,"CE115HA000/GLS3000 H34V (antibody, IgG1, name in Kabat numbering, V domains shown, one-arm IgG1) VH: QVQLVESGGGVVQPGRSLRLSCAASGFTFSNAWMHWVRQAPGKGLEWVAQIKAKSNNYATYYAESVKGRFTISRDDSKNSLYLQMNSLKTEDTAVYYCRYVHYGAYYGVDAWGQGTTVTVSS VL: DIVMTQSPLSLPVTPGEPASISCRSSQSLVHSNRNTYLVWYQQKPGQAPRLLIYKVSNRFSGVPDRFSGSGSGTDFTLKISRVEAEDVGVYYCGQGTQVPYTFGQGTKLEIK",1.04
10,"CE115HA000/GLS3000 H34T (antibody, IgG1, name in Kabat numbering, V domains shown, one-arm IgG1) VH: QVQLVESGGGVVQPGRSLRLSCAASGFTFSNAWMHWVRQAPGKGLEWVAQIKAKSNNYATYYAESVKGRFTISRDDSKNSLYLQMNSLKTEDTAVYYCRYVHYGAYYGVDAWGQGTTVTVSS VL: DIVMTQSPLSLPVTPGEPASISCRSSQSLVHSNRNTYLTWYQQKPGQAPRLLIYKVSNRFSGVPDRFSGSGSGTDFTLKISRVEAEDVGVYYCGQGTQVPYTFGQGTKLEIK",1.1

# More lines, now with the values ahead:
row,KD ratio to GLS3000,Binder
1,8.13,"CE115HA000/GLS3000 K50Q (antibody, IgG1, name in Kabat numbering, V domains shown, one-arm IgG1) VH: QVQLVESGGGVVQPGRSLRLSCAASGFTFSNAWMHWVRQAPGKGLEWVAQIKAKSNNYATYYAESVKGRFTISRDDSKNSLYLQMNSLKTEDTAVYYCRYVHYGAYYGVDAWGQGTTVTVSS VL: DIVMTQSPLSLPVTPGEPASISCRSSQSLVHSNRNTYLHWYQQKPGQAPRLLIYQVSNRFSGVPDRFSGSGSGTDFTLKISRVEAEDVGVYYCGQGTQVPYTFGQGTKLEIK"
2,195,"CE115HA000/GLS3000 K50Y (antibody, IgG1, name in Kabat numbering, V domains shown, one-arm IgG1) VH: QVQLVESGGGVVQPGRSLRLSCAASGFTFSNAWMHWVRQAPGKGLEWVAQIKAKSNNYATYYAESVKGRFTISRDDSKNSLYLQMNSLKTEDTAVYYCRYVHYGAYYGVDAWGQGTTVTVSS VL: DIVMTQSPLSLPVTPGEPASISCRSSQSLVHSNRNTYLHWYQQKPGQAPRLLIYYVSNRFSGVPDRFSGSGSGTDFTLKISRVEAEDVGVYYCGQGTQVPYTFGQGTKLEIK"
3,25.1,"CE115HA000/GLS3000 K50T (antibody, IgG1, name in Kabat numbering, V domains shown, one-arm IgG1) VH: QVQLVESGGGVVQPGRSLRLSCAASGFTFSNAWMHWVRQAPGKGLEWVAQIKAKSNNYATYYAESVKGRFTISRDDSKNSLYLQMNSLKTEDTAVYYCRYVHYGAYYGVDAWGQGTTVTVSS VL: DIVMTQSPLSLPVTPGEPASISCRSSQSLVHSNRNTYLHWYQQKPGQAPRLLIYTVSNRFSGVPDRFSGSGSGTDFTLKISRVEAEDVGVYYCGQGTQVPYTFGQGTKLEIK"
4,42.4,"CE115HA000/GLS3000 K50G (antibody, IgG1, name in Kabat numbering, V domains shown, one-arm IgG1) VH: QVQLVESGGGVVQPGRSLRLSCAASGFTFSNAWMHWVRQAPGKGLEWVAQIKAKSNNYATYYAESVKGRFTISRDDSKNSLYLQMNSLKTEDTAVYYCRYVHYGAYYGVDAWGQGTTVTVSS VL: DIVMTQSPLSLPVTPGEPASISCRSSQSLVHSNRNTYLHWYQQKPGQAPRLLIYGVSNRFSGVPDRFSGSGSGTDFTLKISRVEAEDVGVYYCGQGTQVPYTFGQGTKLEIK"
5,0.85,"CE115HA000/GLS3000 K74T (antibody, IgG1, name in Kabat numbering, V domains shown, one-arm IgG1) VH: QVQLVESGGGVVQPGRSLRLSCAASGFTFSNAWMHWVRQAPGKGLEWVAQIKAKSNNYATYYAESVKGRFTISRDDSKNSLYLQMNSLKTEDTAVYYCRYVHYGAYYGVDAWGQGTTVTVSS VL: DIVMTQSPLSLPVTPGEPASISCRSSQSLVHSNRNTYLHWYQQKPGQAPRLLIYKVSNRFSGVPDRFSGSGSGTDFTLTISRVEAEDVGVYYCGQGTQVPYTFGQGTKLEIK"
6,1.83,"CE115HA000/GLS3000 K50R (antibody, IgG1, name in Kabat numbering, V domains shown, one-arm IgG1) VH: QVQLVESGGGVVQPGRSLRLSCAASGFTFSNAWMHWVRQAPGKGLEWVAQIKAKSNNYATYYAESVKGRFTISRDDSKNSLYLQMNSLKTEDTAVYYCRYVHYGAYYGVDAWGQGTTVTVSS VL: DIVMTQSPLSLPVTPGEPASISCRSSQSLVHSNRNTYLHWYQQKPGQAPRLLIYRVSNRFSGVPDRFSGSGSGTDFTLKISRVEAEDVGVYYCGQGTQVPYTFGQGTKLEIK"
7,36.4,"CE115HA000/GLS3000 K50L (antibody, IgG1, name in Kabat numbering, V domains shown, one-arm IgG1) VH: QVQLVESGGGVVQPGRSLRLSCAASGFTFSNAWMHWVRQAPGKGLEWVAQIKAKSNNYATYYAESVKGRFTISRDDSKNSLYLQMNSLKTEDTAVYYCRYVHYGAYYGVDAWGQGTTVTVSS VL: DIVMTQSPLSLPVTPGEPASISCRSSQSLVHSNRNTYLHWYQQKPGQAPRLLIYLVSNRFSGVPDRFSGSGSGTDFTLKISRVEAEDVGVYYCGQGTQVPYTFGQGTKLEIK"
8,27.7,"CE115HA000/GLS3000 K50P (antibody, IgG1, name in Kabat numbering, V domains shown, one-arm IgG1) VH: QVQLVESGGGVVQPGRSLRLSCAASGFTFSNAWMHWVRQAPGKGLEWVAQIKAKSNNYATYYAESVKGRFTISRDDSKNSLYLQMNSLKTEDTAVYYCRYVHYGAYYGVDAWGQGTTVTVSS VL: DIVMTQSPLSLPVTPGEPASISCRSSQSLVHSNRNTYLHWYQQKPGQAPRLLIYPVSNRFSGVPDRFSGSGSGTDFTLKISRVEAEDVGVYYCGQGTQVPYTFGQGTKLEIK"
9,45.3,"CE115HA000/GLS3000 K50S (antibody, IgG1, name in Kabat numbering, V domains shown, one-arm IgG1) VH: QVQLVESGGGVVQPGRSLRLSCAASGFTFSNAWMHWVRQAPGKGLEWVAQIKAKSNNYATYYAESVKGRFTISRDDSKNSLYLQMNSLKTEDTAVYYCRYVHYGAYYGVDAWGQGTTVTVSS VL: DIVMTQSPLSLPVTPGEPASISCRSSQSLVHSNRNTYLHWYQQKPGQAPRLLIYSVSNRFSGVPDRFSGSGSGTDFTLKISRVEAEDVGVYYCGQGTQVPYTFGQGTKLEIK"
10,0.95,"CE115HA000/GLS3000 K107E (antibody, IgG1, name in Kabat numbering, V domains shown, one-arm IgG1) VH: QVQLVESGGGVVQPGRSLRLSCAASGFTFSNAWMHWVRQAPGKGLEWVAQIKAKSNNYATYYAESVKGRFTISRDDSKNSLYLQMNSLKTEDTAVYYCRYVHYGAYYGVDAWGQGTTVTVSS VL: DIVMTQSPLSLPVTPGEPASISCRSSQSLVHSNRNTYLHWYQQKPGQAPRLLIYKVSNRFSGVPDRFSGSGSGTDFTLKISRVEAEDVGVYYCGQGTQVPYTFGQGTKLEIE"
11,57.2,"CE115HA000/GLS3000 K50E (antibody, IgG1, name in Kabat numbering, V domains shown, one-arm IgG1) VH: QVQLVESGGGVVQPGRSLRLSCAASGFTFSNAWMHWVRQAPGKGLEWVAQIKAKSNNYATYYAESVKGRFTISRDDSKNSLYLQMNSLKTEDTAVYYCRYVHYGAYYGVDAWGQGTTVTVSS VL: DIVMTQSPLSLPVTPGEPASISCRSSQSLVHSNRNTYLHWYQQKPGQAPRLLIYEVSNRFSGVPDRFSGSGSGTDFTLKISRVEAEDVGVYYCGQGTQVPYTFGQGTKLEIK"
